Source: the supplement of paper PMC10126150
± gives the standard deviation of the averaged measurements.

Test system: ATP
Experiment: switch fluorescence ratio, 500 uM ATP over buffer (Cy3 cluster intensity, sum of 5 cycles each) (fold (ratio)); higher = stronger signal-on switching upon ATP binding; sequences stand for … in TCGTCGGCAGCGTCAGATGTGTATAAGAGACAGTTTTTTTTTTTTTTTTTTTTTTTTT…TC
Conditions: aptamer strand: ATP DNA aptamer (quencher-CACCTGGGGGAGTATTGCGGAGGAAGG + anchor), 100 nM annealed; ATP concentration: 500 uM
Outline: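 Values give the fluorescence ratio for each switch-domain sequence, averaged from per-cluster ratios of summed target-cycle to summed buffer-cycle Cy3 intensity. The Cy3-labelled switching-strand clusters sat on a modified Illumina MiSeq flow-cell, were annealed to 100 nM quencher-labelled ATP aptamer, and were imaged in selection buffer, then after 15 min with 500 uM ATP at 22 °C. Five cycles ran with NaOH stripping and re-annealing between them, and clusters outside 100-1000 RFU were excluded.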
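Also: ATP exposure 15 min at 22 °C before imaging.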

Row | Sequence | switch fluorescence ratio
1 | GACTCTGGGA | 1.11 ± 0.027
2 | GACGACGATG | 1.016 ± 0.0022
3 | CAATTCGTCT | 0.994 ± 0.075
4 | TTTTGGACCT | 1.3 ± 0.0093
5 | GTTAAAAACA | 1.03 ± 0.052
6 | GGGTGGGTA | 1.03 ± 0.03
7 | AGGTATTGGA | 0.985 ± 0.015
8 | AGGCTAGTGG | 0.993 ± 0.035
9 | ATCTCTGGTC | 0.976 ± 0.027
10 | CGAATTCCAC | 1.024 ± 0.0099
11 | CAGGTAAGGT | 1.014 ± 0.0035
12 | TCCTTTGGAT | 1.05 ± 0.049
13 | GGGGGTACGA | 1.01 ± 0.052
14 | AAATCGTGCA | 1 ± 0.03
15 | GCGTTTGGG | 1.14 ± 0.15
16 | AGTAAGGGGT | 0.982 ± 0.021
17 | TTTTAATACC | 1 ± 0.023
18 | GAGCATAGTT | 1.03 ± 0.014
19 | CGCTTGTCAC | 1.18 ± 0.021
20 | AACGGACGCT | 1.16 ± 0.064
21 | CGCGTACGTT | 1.05 ± 0.018
22 | GTGTGACCGT | 1.02 ± 0.024
23 | CGGGGGTCCG | 0.926 ± 0.087
24 | TACGGGTATA | 1.01 ± 0.025
25 | TTACAACGTA | 1 ± 0.013

Row | Sequence | switch fluorescence ratio
26 | TGGTTTGGAG | 0.984 ± 0.057
27 | CATCATGTGT | 0.9714 ± 0.0043
28 | GAGAACGAGG | 0.983 ± 0.023
29 | TATAGTCTTT | 0.983 ± 0.015
30 | TTTTTTCAGA | 0.975 ± 0.029
31 | GAAGGAACCG | 1.025 ± 0.0063
32 | ATTTGAGGAT | 0.972 ± 0.027
33 | TCAAGGCGGA | 0.99 ± 0.012
34 | AGGCGACTAT | 1 ± 0.011
35 | TTGGGGCTT | 1.32 ± 0.41
36 | TCCTCTTAAG | 1.09 ± 0.03
37 | AGGGGGCGCG | 1.01 ± 0.048
38 | CGGGGCGGTG | 1.02 ± 0.037
39 | TTTCTAGAGA | 1 ± 0.021
40 | AGTTGCTCCT | 0.986 ± 0.024
41 | TTTCTGTTCG | 0.989 ± 0.024
42 | TAACAGGTTG | 1.02 ± 0.019
43 | ACGGTCGACT | 1.05 ± 0.057
44 | ATTTTTGAGG | 1.02 ± 0.017
45 | AAATTTGGGT | 1.01 ± 0.013
46 | GTTGCGTCTA | 1.04 ± 0.033
47 | TGGCAGCAGG | 1 ± 0.024
48 | GGGGTAAGAC | 1.02 ± 0.036
49 | AGACTGGGCT | 1.01 ± 0.011
50 | CTTTGGCAGC | 1.06 ± 0.017

Row | Sequence | switch fluorescence ratio
51 | GGTGCGATGC | 1.7 ± 0.081
52 | CCCCTGTACT | 1.227 ± 0.0074
53 | TTCTTGTAAT | 1.014 ± 0.003
54 | TTGCTAGTTA | 0.971 ± 0.037
55 | TGACCTGGCT | 1.04 ± 0.035
56 | GGACGGTATT | 1.08 ± 0.051
57 | TTAATCGATG | 1 ± 0.019
58 | ACTCACTGGT | 1.23 ± 0.043
59 | TTGTGCTGGG | 0.998 ± 0.022
60 | CGGGCAATTT | 1.38 ± 0.1
61 | GGATTTTATC | 0.992 ± 0.013
62 | TTACTTTTGT | 1.021 ± 0.0039
63 | AAGCTTGTGT | 0.997 ± 0.069
64 | ACAAGTGATC | 1.076 ± 0.0017
65 | TTTTGGCGGT | 0.971 ± 0.055
66 | TTACTGAACT | 1.19 ± 0.025
67 | TAGGTAGGTT | 1.015 ± 0.0086
68 | TTACATGAAT | 1.04 ± 0.033
69 | GGGTGGTGGT | 0.981 ± 0.043
70 | AAGGGGGACA | 0.992 ± 0.032
71 | AGCCGGCTGC | 1.03 ± 0.024
72 | GAATGGGTAA | 1.02 ± 0.033
73 | GAGTCTGTCC | 1.019 ± 0.0035
74 | GGGGCCAAGG | 0.981 ± 0.017
75 | TTTGCGGCGT | 0.986 ± 0.022

Row | Sequence | switch fluorescence ratio
76 | GGTAAGGGGG | 0.99 ± 0.031
77 | TGGTGTGTTT | 0.978 ± 0.035
78 | TAGGTAAATT | 1.02 ± 0.054
79 | ACAAGGTATA | 1.15 ± 0.15
80 | TATAATGGCG | 0.961 ± 0.04
81 | CGTCATGCTC | 1.19 ± 0.036
82 | CGTAGGTGCA | 1.05 ± 0.022
83 | TTGGTCGGGA | 1.15 ± 0.2
84 | TAATTATGTG | 0.986 ± 0.024
85 | GGGACGGCTC | 0.993 ± 0.049
86 | CATTTTATAT | 1.02 ± 0.012
87 | AGGTAAATTA | 0.9982 ± 0.0076
88 | ATGCTGGGCG | 1.02 ± 0.041
89 | AATTTGGTGC | 1.011 ± 0.0064
90 | AGTATTCGCT | 0.975 ± 0.017
91 | TTAGAGTATA | 1 ± 0.00038
92 | GGCGTAGCTT | 1.01 ± 0.051
93 | TTCCAGGGGA | 1.08 ± 0.11
94 | TGGGTCGGGC | 0.9905 ± 0.009
95 | GGGCATGGCT | 0.99 ± 0.016
96 | GATAAGTTGG | 0.935 ± 0.09
97 | GAGGGTTCGA | 0.987 ± 0.033
98 | GATCGGGGTT | 0.994 ± 0.036
99 | AGTGACAACA | 1.007 ± 0.0021
100 | GGTAAATGTG | 1.03 ± 0.072

Row | Sequence | switch fluorescence ratio
101 | TCCTACTGGG | 1.04 ± 0.028
102 | CCACCTATCA | 1.07 ± 0.031
103 | TTCGCAGGAT | 1.1 ± 0.027
104 | TAAGCTTAGT | 1.001 ± 0.0065
105 | TTTTTCCTAC | 1 ± 0.016
106 | GGCTGGGATT | 0.964 ± 0.02
107 | AAATATAAGC | 1.03 ± 0.044
108 | CCGCGGGTTG | 1.05 ± 0.02
109 | TTCAGAAACA | 1.04 ± 0.037
110 | ATCATTTGTC | 1.022 ± 0.0092
111 | AGAAATTCAT | 0.992 ± 0.029
112 | TTCGGCGCGG | 1.21 ± 0.32
113 | TATCAAAGGT | 1.01 ± 0.025
114 | CGTTGGTCAG | 1.02 ± 0.032
115 | GAAGGTGTGC | 1.07 ± 0.1
116 | TAGGGAGGCG | 0.962 ± 0.063
117 | AGTAAATTAT | 1.03 ± 0.027
118 | TAGTTGGGCA | 0.987 ± 0.026
119 | TGGGGGGTTA | 0.995 ± 0.024
120 | TATAATAGTT | 0.965 ± 0.037
121 | AAGGTCTTTG | 1.01 ± 0.043
122 | GAACTTAGAT | 1.01 ± 0.04
123 | TAGACTGGGG | 0.966 ± 0.11
124 | TTATAACTCG | 0.995 ± 0.035
125 | TTTTAAACTT | 1.09 ± 0.15

Row | Sequence | switch fluorescence ratio
126 | ACTCTGGTAA | 1.065 ± 0.0032
127 | TTCTTCTGGG | 0.997 ± 0.017
128 | GAGGGGGTCC | 1.03 ± 0.069
129 | ATAAAGGCGA | 0.975 ± 0.043
130 | TAGTGCACGG | 0.995 ± 0.039
131 | AACGTAGTCG | 1.031 ± 0.0046
132 | TTTGAGGGGC | 0.995 ± 0.024
133 | GAGTCGAGAG | 0.99 ± 0.033
134 | GGCAGGCCAT | 1.059 ± 0.0074
135 | TTTATCAGTT | 0.951 ± 0.035
136 | GTGATATGGA | 0.992 ± 0.014
137 | CCAGAACGAA | 1.037 ± 0.0099
138 | GTGATTCCGA | 1.02 ± 0.029
139 | TCGGTATGTG | 1.03 ± 0.045
140 | TCTGATTGGT | 0.9945 ± 0.0034
141 | GGAAATTTGT | 1.008 ± 0.0044
142 | GGTGTGAGAG | 1.02 ± 0.038
143 | ACTCGTGTAG | 1.04 ± 0.022
144 | ATTAGGGTTC | 1.44 ± 0.47
145 | AACAGGGGGC | 1.04 ± 0.023
146 | GTTTTACTGA | 1.03 ± 0.021
147 | AACATTGGGG | 1.02 ± 0.024
148 | GTACTTCATC | 1.06 ± 0.058
149 | CGGTTGTAGG | 0.999 ± 0.015
150 | CTAAATCGGT | 0.987 ± 0.061

Row | Sequence | switch fluorescence ratio
151 | CGAACAGGTT | 1.04 ± 0.02
152 | AGTTTTGAGG | 1.001 ± 0.0016
153 | TTTTTGTGGT | 1 ± 0.036
154 | ATCGTTGAGG | 0.986 ± 0.023
155 | GATTGTGGAC | 1.1 ± 0.063
156 | GGGCTATGCT | 1 ± 0.037
157 | GCATGTGTGG | 0.995 ± 0.065
158 | TTTTTACGAG | 0.988 ± 0.045
159 | GCTTGTCTCG | 1 ± 0.053
160 | ATGCATGTGC | 0.983 ± 0.01
161 | TCATGCCAAC | 1.03 ± 0.011
162 | TATTTTCCTG | 1.15 ± 0.18
163 | AATCGGGCGC | 1.01 ± 0.048
164 | CCAGTTCGGA | 0.981 ± 0.059
165 | AATGAGGGAA | 0.9986 ± 0.0011
166 | GGCATAGGGG | 1.01 ± 0.026
167 | ATAAGAGTCT | 1.03 ± 0.094
168 | GATGCGAAAT | 1.06 ± 0.023
169 | TTATAAGCAG | 1.02 ± 0.017
170 | GGAGTCTAGC | 0.9825 ± 0.0036
171 | ATGAGAGCTT | 0.982 ± 0.011
172 | AGGGTCAGGG | 1.01 ± 0.04
173 | TGTACTTCTT | 1.24 ± 0.3
174 | GGGGAAGAGA | 0.96964 ± 5.5e-05
175 | TTCGAAAGGT | 1.1 ± 0.2

Row | Sequence | switch fluorescence ratio
176 | CGCATTGGT | 1.31 ± 0.016
177 | AATAATCGAG | 1.027 ± 0.0093
178 | TATTTTGGGC | 0.997 ± 0.046
179 | ACTCGCTGGG | 1.11 ± 0.018
180 | TTTATATAAT | 0.984 ± 0.038
181 | CCCGTTTTTG | 0.986 ± 0.014
182 | AAGGTGTCGG | 0.9895 ± 0.0037
183 | CGGATCGACA | 0.976 ± 0.025
184 | TTGGCGTTTT | 1.04 ± 0.026
185 | TGGGGGTGCA | 1.01 ± 0.035
186 | GGAATTGTCC | 1.44 ± 0.69
187 | ACGCTGGAAG | 0.9892 ± 0.0067
188 | TTGAAGCGGC | 1.59 ± 0.76
189 | GGGTTGGGTC | 0.996 ± 0.029
190 | GGGGCTTGTA | 1 ± 0.016
191 | TATATATGAA | 1.01 ± 0.015
192 | GGCTAGGTGC | 1.24 ± 0.058
193 | TCTCAATGCT | 1.21 ± 0.2
194 | GCGTAAGACC | 1.07 ± 0.06
195 | CGCCCGCACG | 1.93 ± 0.5
196 | CAAAGAGTAG | 1.002 ± 0.005
197 | TGCTGGGGGC | 0.971 ± 0.022
198 | GTGGGCAGCG | 0.9666 ± 0.0047
199 | GGGGGATTAC | 1.06 ± 0.083
200 | AAATTTTGGG | 1 ± 0.019
